According to patent publication US20060281072A1 (CRUCELL HOLLAND B V, published 2006):

Assays:
[1] = molecular target: T1, human OX40-Ig fusion protein (human, UniProt P43489 29-214); assay: phage ELISA on coated human OX40-Ig, anti-M13 peroxidase, absorbance at 492 nm
T1 construct: extracellular domain; Bought (Alexis Biochemicals); not shown: CH2 and CH3 domains of human IgG1
T1 sequence (looked up): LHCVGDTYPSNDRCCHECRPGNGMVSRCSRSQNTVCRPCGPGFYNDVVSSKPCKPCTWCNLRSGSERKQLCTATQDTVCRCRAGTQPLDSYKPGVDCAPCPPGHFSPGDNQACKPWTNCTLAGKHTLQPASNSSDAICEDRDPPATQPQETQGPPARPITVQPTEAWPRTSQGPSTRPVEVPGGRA
Experimental: Selected phage antibodies that were obtained in the screen described above, were validated in ELISA for specificity. For this purpose, human OX40-Ig was coated to Maxisorp™ ELISA plates. After coating, the plates were blocked in 2% MPBS. The selected phage antibodies were incubated in an equal volume of 4% MPBS. The plates are emptied, washed once in PBS, after which the blocked phages were added. Incubation was allowed to proceed for 1 hour, the plates were washed in PBS containing 0.1% Tween-20 and bound phages were detected using an anti-M13 antibody conjugated to peroxidase. As a control, the procedure was performed simultaneously using a control phage antibody directed against thyroglobulin (De Kruif et al. 1995a and 1995b), which served as a negative control.

[2] = molecular target: T2, human OX40-receptor (human, UniProt P43489 29-277); assay: flow cytometry on tonsil mononuclear cells, M13 anti-phage APC against CD4 FITC
T2 construct: whole, on cells; also called CD134; ACT-4
T2 sequence (looked up): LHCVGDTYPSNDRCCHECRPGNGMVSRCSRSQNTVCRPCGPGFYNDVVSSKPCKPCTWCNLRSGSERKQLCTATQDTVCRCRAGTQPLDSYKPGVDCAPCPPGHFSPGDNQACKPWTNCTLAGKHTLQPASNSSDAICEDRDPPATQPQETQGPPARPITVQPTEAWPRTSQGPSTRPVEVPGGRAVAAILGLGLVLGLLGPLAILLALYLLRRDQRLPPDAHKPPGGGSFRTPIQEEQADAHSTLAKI
Experimental: Inflamed tonsils were obtained from patients undergoing routine tonsillectomy. Tonsils were minced and the MNC fraction was isolated by density centrifugation. Flow cytometric analysis of the binding of the anti-OX40-receptor phage antibodies to the OX40+ CD4+ T-cells was performed as described above. The CD4+ T-cells were distinguished from total tonsil MNC using a FITC conjugated antibody against CD4. As shown in FIGS. 3A and 3B the selected anti-human OX40-receptor phage antibodies called SC02008, SC02009, SC02010, SC02011, SC02012 and SC02021 selectively stain a subset of CD4+ T-cells within tonsil and synovial fluid mononuclear cells respectively, while they display minor staining of peripheral blood CD4+ T-cells (FIG. 3C).

[3] = molecular target: T2, human OX40-receptor; assay: flow cytometry on OX40-receptor transfected (filled) and mock-transfected (open) PER.C6 cells, anti-human IgG PE, IgG1 at 20 µg/ml
Experimental: The anti-OX40 receptor IgG1 antibodies were validated for their ability to bind to PER.C6™ cells transfected with human OX40-receptor. To this purpose mock- and human OX40-receptor-transfected cells were stained with the IgG1 antibodies at a concentration of 20 μg/ml at 4° C. Binding of the antibodies called 008, 011, 021 and 023 was visualized using biotinylated goat-anti-human IgG (Fc specific, Caltag) followed by streptavidin-phyco-erythrin (Caltag). The stained cells were analyzed by flow cytometry.

[4] = molecular target: T2, human OX40-receptor; assay: flow cytometry, mix of OX40-receptor transfected (green, PKH67) and control transfected PER.C6 cells, M13 anti-phage PE
Experimental: In another assay the phage antibodies were analyzed for their ability to bind PER.C6™ cells that recombinantly express human OX40-receptor. To this purpose PER.C6™ cells were transfected with a plasmid carrying a cDNA sequence encoding human OX40-receptor or with the empty vector and stable transfectants were selected using standard techniques known to a person skilled in the art (Coligan et al., 2001). For flow cytometry analysis, phage antibodies were first blocked in an equal volume of 4% MPBS for 15 minutes at 4° C. prior to the staining of the OX40-receptor- and control transfected PER.C6™ cells. The blocked phages were added to a mixture of unlabelled control transfected PER.C6™ cells and OX40-receptor transfected PER.C6™ cells that were labelled green using a lipophylic dye (PKH67, Sigma). The binding of the phage antibodies to the cells was visualized using a biotinylated anti-M13 antibody (Santa Cruz Biotechnology) followed by streptavidin-phycoerythrin (Caltag).

[5] = molecular target: T2, human OX40-receptor; assay: flow cytometry on tonsil mononuclear cells, M13 anti-phage PE against CD4 FITC

Binder	binding result [1]	binding result [3]	further results
phage antibody SC02008 (scFv) (scFv, the phage coat protein fusion is not described) scFv: MAEVQLVESGGGLVQPGGSLRLSCAASGFTFSNYTMNWVRQAPGKGLEWVSAISGSGGSTYYADSVKGRFTISRDNSKNTLYLQMNSLRAEDTAVYYCAKDRYSQVHYALDYWGQGTLVTVLEGTGGSGGTGSGTGTSELDIQMTQSPDSLPVTPGEPASISCRSSQSLLHSNGYNYLDWYLQKAGQSPQLLIYLGSNRASGVPDRFSGSGSGTDFTLKISRVEAEDVGVYYCQQYYNHPTTFGQGTKLEIKRAA	binds	–	binding result [2]: binds
human IgG1 antibody 011 (antibody, V domains shown, Human IgG1 made from scFv SC02011, expressed in PER.C6 cells; also called pgG102-011C01) VH: EVQLVESGGGVVQPGRSLRLSCAASGFTFSDYTMNWVRQAPGKGLEWVSSISGGSTYYADSRKGRFTISRDNSKNTLYLQMNNLRAEDTAVYYCARDRYFRQQNAFDYWGQGTLVTVSS VL: not shown	–	binds	–
human IgG1 antibody 008 (antibody, V domains shown, Human IgG1 made from scFv SC02008, expressed in PER.C6 cells; also called pgG102-008C01) VH: EVQLVESGGGLVQPGGSLRLSCAASGFTFSNYTMNWVRQAPGKGLEWVSAISGSGGSTYYADSVKGRFTISRDNSKNTLYLQMNSLRAEDTAVYYCAKDRYSQVHYALDYWGQGTLVTVSS VL: not shown	–	binds	–
phage antibody SC02011 (scFv) (scFv) scFv: MAEVQLVESGGGVVQPGRSLRLSCAASGFTFSDYTMNWVRQAPGKGLEWVSSISGGSTYYADSRKGRFTISRDNSKNTLYLQMNNLRAEDTAVYYCARDRYFRQQNAFDYWGQGTLVTVLEGTGGSGGTGSGTGTSELDIQMTQSPVTLPVTPGEPASISCRSSQSLLHSNGYNYLDWYLQKPGQSPQLLIYLGSNRASGVPDRFSGSGSGTDFTLKISRVEAEDVGVYYCQQYLTAPPTFGQGTKLEIKRAA	binds	–	binding result [4]: binds
human IgG1 antibody 023 (antibody, V domains shown, Human IgG1 made from scFv SC02023, expressed in PER.C6 cells; also called pgG102-023C01) VH: EVQLVESGGGLVHPGGSLRLSCAGSGFTFSSYAMHWVRQAPGKGLEWVSAIGTGGGTYYADSVMGRFTISRDNSKNTLYLQMNSLRAEDTAVYYCARYDNVMGLYWFDYWGQGTLVTVSS VL: EIVLTQSPATLSLSPGERATLSCRASQSVSSYLAWYQQKPGQAPRLLIYDASNRATGIPARFSGSGSGTDFTLTISSLEPEDFAVYYCQQRSNWPPAFGGGTKVEIKR	–	binds	–
phage antibody SC02012 (scFv) (scFv) scFv: MAEVQLVESGGGLVKPGGSLRLSCAASGFTFSNDSMNWMRQAPGKGLEWVANINQDGNEKYYADSVKGRFTISRDNSKNSLYLQMNSLRDEDTALYYCARARAAGTIFDYWGQGTLVTVLEGTGGSGGTGSGTGTSELDIQMTQSPSSLSASVGDRVTITCRASQNVSNYLTWYQQKPGKAGKLLIYAASSLQSGVPSRFSGSGSGTDFTLTISSLQPEDFATYYCQQSYFNPATFGQGTKLEIKRAA	binds	–	binding result [4]: binds
human IgG1 antibody 021 (antibody, V domains shown, Human IgG1 made from scFv SC02021, expressed in PER.C6 cells; also called pgG102-021C01) VH: EVQLVESGGGLVQPRGSLRLSCAASGFTFSSYAMNWVRQAPGKGLEWVAVISYDGSNKYYADSVKGRFTISRDNSKNTLYLQMNSLRAEDTAVYYCAKDRYITLPNALDYWGQGTLVTVSS VL: not shown	–	binds	–
phage antibody SC02022 (scFv) (scFv, selected on OX40+ CD4+ T-cells) scFv: MAEVQLVESGGGLVHPGGSLRLSCAGSGFTFSSYAMHWVRQAPGKGLEWVSAIGTGGGTYYADSVQGRFTISRDNAKNSLYLQMNSLRAEDTAVYYCARYDEPLTIYWFDSWGQGTLVTVSSGGGGSGGGGSGGGGSEIELTQSPATLSLSPGERATLSCRASQSVSSYLAWYQQKPGQAPRLLIYDASNRATGIPARFSGSGSGTDFTLTISSLEPEDFAVYYCQQRSNWPPAFGGGTKVEIKRAA	–	–	binding result [5]: binds
phage antibody SC02023 (scFv) (scFv, selected on OX40+ CD4+ T-cells) scFv: MAEVQLVESGGGLVHPGGSLRLSCAGSGFTFSSYAMHWVRQAPGKGLEWVSAIGTGGGTYYADSVMGRFTISRDNSKNTLYLQMNSLRAEDTAVYYCARYDNVMGLYWFDYWGQGTLVTVSSGGGGSGGGGSGGGGSEIELTQSPATLSLSPGERATLSCRASQSVSSYLAWYQQKPGQAPRLLIYDASNRATGIPARFSGSGSGTDFTLTISSLEPEDFAVYYCQQRSNWPPAFGGGTKVEIKRAA	–	–	binding result [5]: binds
